Source: patent US20110097340A1 (SCHERING, published 2011)

T1: murine VEGF165 (murine, UniProt Q00731-2 27-190)
T1 construct: also called mVEGF165; rMu-VEGF165
T1 sequence (looked up): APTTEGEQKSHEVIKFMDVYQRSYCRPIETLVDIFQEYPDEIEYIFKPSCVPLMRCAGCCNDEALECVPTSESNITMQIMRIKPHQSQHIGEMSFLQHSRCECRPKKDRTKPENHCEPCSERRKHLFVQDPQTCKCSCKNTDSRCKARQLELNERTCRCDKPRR

T2: hVEGF121-G88S (human, UniProt P15692-9 27-147, G88S)
T2 construct: Transiently expressed in CHO-K1 cells; culture supernatant used
T2 sequence (looked up): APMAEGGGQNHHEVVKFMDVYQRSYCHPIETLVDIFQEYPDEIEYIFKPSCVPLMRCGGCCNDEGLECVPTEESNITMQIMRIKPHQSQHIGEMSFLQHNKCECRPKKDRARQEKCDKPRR

T3: wild-type hVEGF121 (human, UniProt P15692-9 27-147)
T3 sequence (looked up): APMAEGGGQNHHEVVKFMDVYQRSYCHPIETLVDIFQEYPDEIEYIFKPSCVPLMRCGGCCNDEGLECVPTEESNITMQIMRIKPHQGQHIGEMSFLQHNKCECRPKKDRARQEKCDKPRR

T4: hVEGF121-M81A (human, UniProt P15692-9 27-147)
T4 construct: Transiently expressed in CHO-K1 cells; culture supernatant used
T4 sequence (looked up): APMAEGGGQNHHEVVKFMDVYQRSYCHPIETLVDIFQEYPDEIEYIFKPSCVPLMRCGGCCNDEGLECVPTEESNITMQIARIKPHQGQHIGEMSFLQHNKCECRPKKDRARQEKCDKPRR

T5: hVEGF121-Q89A (human, UniProt P15692-9 27-147, Q89A)
T5 construct: Transiently expressed in CHO-K1 cells; culture supernatant used
T5 sequence (looked up): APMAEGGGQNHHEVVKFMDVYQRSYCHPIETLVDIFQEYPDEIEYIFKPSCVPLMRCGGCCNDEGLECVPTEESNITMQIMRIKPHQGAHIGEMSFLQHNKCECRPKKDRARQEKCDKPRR

T6: hVEGF121-G92A (human, UniProt P15692-9 27-147, G92A)
T6 construct: Transiently expressed in CHO-K1 cells; culture supernatant used
T6 sequence (looked up): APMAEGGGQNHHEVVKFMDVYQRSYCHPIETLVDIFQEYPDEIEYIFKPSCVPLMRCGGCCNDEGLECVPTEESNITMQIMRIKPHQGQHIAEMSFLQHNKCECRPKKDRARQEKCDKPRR

B1: XPA.10.064 IgG2 (antibody, V domains shown)
VH: EVQLVQSGAEVRKPGASVKVSCKASGYSFTGHYIHWVRQAPGQGLEWMGWINPYSGGTNFPREFQGRVTMTRDTSVNTVYMELTRLTSDDTSVYYCARDHRIVGGLDYWGQGTLVTVSS
VL: SYVLTQPPSASGTPGQRVTISCSGSSSNIGINYVYWYQQLPGTAPKLLIYRNDQRPSGVPDRFSGSKSGTSASLAISGLRSEDEADYYCATWDDSLSGVVFGGGTKVTVL
notes: Converted to IgG with gamma-2 heavy chain constant region; Expressed in 293E cells; also called parental XPA.10.064; VPA.10.064
B2: XPA.10.072 IgG2 (antibody, V domains shown)
VH: RLQLVQSGAEVRKPGASVKVSCKASGYSFTGHYIHWARQAPGQGLEWMGWINPYSGGTNFPREFQGRVTMTRDTSVNTVYMELTRLTSDDTSVYYCARDHRIVGGLDYWGQGTLVTVSS
VL: QSVLTQPPSASGTPGQRVTISCSGSSSNLGSNFVYWYQQLPGTAPKLLIYRNHQRPSGVPDRFSGSKSGTSASLAISGLRSEDEADYYCASWDDSLRVVVFGGGTKLTVL
notes: IgG2 (gamma-2 constant region); also called XPA.072; VPA.10.072

Assays:
human VEGF165 [1] = target: T7, human VEGF165 (human, UniProt P15692 207-395); assay: Biacore 2000, hVEGF165 amine-coupled on C1 chip, antibody injected, 1:1 fit
T7 construct: Recombinant (R&D Systems 293-VE; sf21- or HEK 293-expressed depending on the assay); Biotinylated in the DELFIA assay; also called hVEGF165; rHu-VEGF165
Procedure: (§1) The VEGF binding affinity of these IgGs was tested on a Biacore 2000® by injecting the antibodies over a very low density antigen surface. Human or murine VEGF₁₆₅ was immobilized via standard amine coupling methods to flow cells on a C1 (planar carboxy surface) chip. Approximately 85 RU of each antigen was immobilized and a reference flow cell was activated and blocked. Antibodies were injected over the chip surface for 400 seconds at two different concentrations, after which dissociation was monitored. Data was analyzed by Scrubber® using double referencing and fitting with a 1:1 interaction. Regenerations were performed with 90 mM HCl with 500 mM NaCl.
Target sequence in this assay (P15692 other isoform, or with tags, fused parts or gaps limits assumed): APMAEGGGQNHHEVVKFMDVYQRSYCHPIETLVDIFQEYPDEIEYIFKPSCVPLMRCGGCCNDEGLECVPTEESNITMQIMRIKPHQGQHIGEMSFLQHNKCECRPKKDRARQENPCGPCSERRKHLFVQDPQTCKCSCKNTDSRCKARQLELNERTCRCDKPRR

murine VEGF165 [2] = target: T1, murine VEGF165; assay: Biacore; IgG2, Biacore: weak binding, KD >100 nM
human VEGF165 [3] = target: T7, human VEGF165; assay: Biacore competition, inhibition of hVEGF165 binding to immobilized VEGF-R1
Procedure: (§2) VEGF receptor (R&D Systems) was immobilized on the CM5 chip at a density of approximately […] via amine coupling (Biacore). VEGF-R2 was immobilized on fc2 and VEGF-R1 was immobilized on fc4. Flow cells 1 and 3 served as references, and were activated and blocked in the same manner as the receptor immobilized flow cells. […] Samples were incubated for at least one hour prior to initiation of the Biacore analysis run. […] Samples were injected at 10 μl/minute for 1.5 minutes over all flow cells.
(§3) For data analysis, the slope of a linear portion of association (30 seconds to one minute) of the association phase was determined with a linear fit. […] Data was plotted in GraphPad Prism and fit with a sigmoidal dose response curve to calculate the EC₅₀.

human VEGF165 [4] = target: T7, human VEGF165; assay: cell-based or functional assay
human VEGF165 [5] = target: T7, human VEGF165; assay: cell-based or functional assay; remark: listed apart in the source
Target sequence in this assay (P15692 other isoform, or with tags, fused parts or gaps limits assumed): as above

human VEGF165 [6] = target: T7, human VEGF165; assay: Biacore 2000, IgG2 captured on Protein A/G, hVEGF165 injected, 1:1 fit
Procedure: (§4) Dilution and running buffer for these experiments was HBS-EP (Biacore) with 1:50 dilution of Chemiblocker® (Chemicon). […] Antibody concentrations were approximately 0.5 μg/ml. hVEGF₁₆₅ expressed from sf21 cells was injected over five minutes at 30 μl/minute using the Kinject feature with 15 minute dissociation over fc1 and 2. […] Regenerations were performed with two injections of 100 mM HCl at 50 μl/minutes for twelve seconds each. Data was processed in Scrubber2 and fit by a 1:1 Langmuir interaction model after double referencing of the control flow cell and blank injections.

hVEGF121-G88S [7] = target: T2, hVEGF121-G88S; assay: sandwich ELISA, antibody coated, CHO-K1 supernatant
wild-type hVEGF121 = target: T3, wild-type hVEGF121; assay: sandwich ELISA, antibody coated
Procedure: (§5) Mutants were transiently expressed in CHO-K1 cells, and cell supernatants were collected for binding analysis by ELISA.
(§6) The plate was blocked with 30% ChemiBlock™ reagent (Millipore) in PBS for one hour at room temperature, and 30, 60, or 100 μl of CHO-K1 culture supernatant for each mutant, or 1 μg/ml of wild-type hVEGF₁₂₁, recombinant hVEGF₁₆₅, or recombinant mVEGF₁₆₅, was added to appropriate wells. After one hour of incubation, the plate was washed and incubated with a biotinylated goat polyclonal anti-VEGF antibody for one hour at room temperature. Detection was performed with HRP-conjugated streptavidin, followed by TMB chromogenic substrate (Calbiochem) using manufacturer protocol.

human VEGF165 [8] = target: T7, human VEGF165; assay: sandwich ELISA, antibody coated
Procedure: as §5, §6

hVEGF121-M81A = target: T4, hVEGF121-M81A; assay: sandwich ELISA, antibody coated
Procedure: as §5, §6

hVEGF121-Q89A = target: T5, hVEGF121-Q89A; assay: sandwich ELISA, antibody coated
Procedure: as §5, §6

hVEGF121-G92A = target: T6, hVEGF121-G92A; assay: sandwich ELISA, antibody coated
Procedure: as §5, §6

hVEGF121-G88S [9] = target: T2, hVEGF121-G88S; assay: sandwich ELISA, antibody coated
Procedure: as §5, §6

human VEGF165 [10] = target: T7, human VEGF165; assay: cell-based or functional assay; remark: listed apart in the source
murine VEGF165 [11] = target: T1, murine VEGF165; assay: sandwich ELISA, antibody coated; epitope ELISA, fold over CHO background: at background, no binding seen
Procedure: as §6

human VEGF165 [12] = target: T7, human VEGF165; assay: Biacore competition, inhibition of hVEGF165 binding to immobilized VEGF-R2
Procedure: as §2, §3

human VEGF165 [13] = target: T7, human VEGF165; assay: Biacore, IgG2 (summary table); lower end of the range of IgG2 Biacore results
Procedure: as §4

murine VEGF165 [14] = target: T1, murine VEGF165; assay: Biacore 2000, mVEGF165 amine-coupled on C1 chip, antibody injected
Procedure: as §1

human VEGF165 [15] = target: T7, human VEGF165; assay: Biacore, IgG2 (summary table)
Procedure: as §4

Row | Binder | Kd (murine VEGF165 [2]) [nM] | EC50 (human VEGF165 [3]) [µg/mL] | Inhibition of HUVEC proliferation, EC50 (µg/ml), HEK 293 hVEGF165 (human VEGF165 [4]) [µg/mL] | Kd (human VEGF165 [6]) [nM] | koff (human VEGF165 [6]) [s⁻¹] | kon (human VEGF165 [6]) [M⁻¹ s⁻¹] | binding result (hVEGF121-G88S [7]) | Raw data (ELISA signal) (wild-type hVEGF121) | fold binding over CHO background (wild-type hVEGF121) [fold] | Raw data (ELISA signal) (human VEGF165 [8]) | fold binding over CHO background (human VEGF165 [8]) [fold] | Raw data (ELISA signal) (hVEGF121-M81A) | fold binding over CHO background (hVEGF121-M81A) [fold] | Raw data (ELISA signal) (hVEGF121-Q89A) | fold binding over CHO background (hVEGF121-Q89A) [fold] | Raw data (ELISA signal) (hVEGF121-G92A) | fold binding over CHO background (hVEGF121-G92A) [fold] | Raw data (ELISA signal) (hVEGF121-G88S [9]) | fold binding over CHO background (hVEGF121-G88S [9]) [fold] | HPP: sf21-hVEGF165, IgG2 (IC50) (human VEGF165 [10]) [µg/mL] | also measured
1 | B1 | > 100 | 0.159 | 0.66 | 1.24 | 0.000286 | 230000 | no binding | 2.65 | 29.1 | 2.09 | 23 | 0.868 | 9.5 | 0.319 | 3.5 | 2.08 | 22.8 | 0.0778 | 0.9 | 0.15 | Kd (human VEGF165 [1]): 1.71 nM; koff (human VEGF165 [1]): 0.000335 s⁻¹; kon (human VEGF165 [1]): 193000 M⁻¹ s⁻¹; HUVEC proliferation, geometric mean IC50 (human VEGF165 [5]): 1.32 nM; fold binding over CHO background (murine VEGF165 [11]): 0.7 fold; EC50 (human VEGF165 [12]): 0.129 µg/mL; Kd (human VEGF165 [13]): 1.24 to 1.71 nM; Kd (murine VEGF165 [14]): 197 nM
2 | B2 | > 100 | 0.121 | 0.68 | 1.66 | 0.000279 | 168000 | no binding | 2.9 | 31.8 | 2.66 | 29.2 | 1.22 | 13.4 | 0.296 | 3.3 | 2.78 | 30.5 | 0.0951 | 1 | 0.24 | Kd (human VEGF165 [15]): 1.66 to 1.7 nM; HUVEC Proliferation Potency (HPP): HEK293-hVEGF165, IgG2 (IC50) (human VEGF165 [10]): 0.68 µg/mL; fold binding over CHO background (murine VEGF165 [11]): 1.1 fold; EC50 (human VEGF165 [12]): 0.173 µg/mL
